Measurements from patent US20130251724A1 (GlaxoSmithKline, published 2013).
“And” between values parts separate entries of the source, which are not always exact repeats. Equal entries are not always repeated.

Key:
[1] = target: T1, Human OSM (human, UniProt P13725 26-221); test: SPR (ProteOn XPR36 or Biacore T100), captured supernatant, OSM as analyte; hatched cell: separate experiment
T1 construct: Recombinant human OSM; also called hOSM; human Oncostatin M
T1 sequence: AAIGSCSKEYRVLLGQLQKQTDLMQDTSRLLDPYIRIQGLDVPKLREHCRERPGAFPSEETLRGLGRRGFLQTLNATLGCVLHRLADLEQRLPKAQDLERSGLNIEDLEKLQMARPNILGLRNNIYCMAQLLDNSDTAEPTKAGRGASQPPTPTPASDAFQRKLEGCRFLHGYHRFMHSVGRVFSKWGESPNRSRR
Method: The initial kinetic analyses for the CDRH3 screen were carried out on the ProteOn XPR36 (Biorad Laboratories) and certain supernatants were selected for more accurate kinetic analysis on the BiaCore T100.
For the ProteOn analysis, anti-human IgG (GE Healthcare/Biacore BR-1008-39) was coupled to a GLM chip (Biorad Laboratories 176-5012) by primary amine coupling. The CDRH3 variants were captured directly on to this surface and recombinant human OSM was passed over the captured antibody surface at 256, 64, 16, 4 and 1 nM, with a buffer injection alone (i.e. 0 nM) used to double reference the binding curves. Following the OSM binding event, the capture surfaces were regenerated: with 3M MgCl₂ the regeneration removed the previously captured antibody ready for another cycle of capture and binding analysis. The data was then fitted to the 1:1 model (with mass transport) inherent to the ProteOn analysis software. The run was carried out using HBS-EP (Biacore/GE-Healthcare BR-1006-69) and the analysis temperature was 25° C.
A similar method was used for analysis of constructs using the Biacore T100, anti-human IgG (GE Healthcare/Biacore BR-1008-39) was coupled to a CM5 chip (GE Healthcare/Biacore BR-1006-68) by primary amine coupling, antibodies were captured on this surface and recombinant human OSM was passed over the captured antibody surface at 256, 64, 16, 4 and 1 nM, with a buffer injection alone (i.e. 0 nM) used to double reference the binding curves. Regeneration was by using pulses of 3M 3M MgCl₂ or 100 mM phosphoric acid or using both reagents. The data was fitted to the 1:1 model inherent to the Biacore T100 analysis software. The run was carried out using HBS-EP (Biacore/GE-Healthcare BR-1006-69) and the analysis temperature was 25° C.

[2] = target: T2, Cynomolgus OSM (cynomolgus, UniProt A0A2K5VPC6 26-221); test: cell-based or functional assay
T2 sequence: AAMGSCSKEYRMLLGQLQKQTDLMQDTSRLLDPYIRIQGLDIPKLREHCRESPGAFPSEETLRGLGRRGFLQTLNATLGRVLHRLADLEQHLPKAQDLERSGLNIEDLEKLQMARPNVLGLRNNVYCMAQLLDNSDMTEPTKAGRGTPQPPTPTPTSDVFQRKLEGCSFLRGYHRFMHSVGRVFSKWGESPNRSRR

[3] = target: T1, Human OSM; test: cell-based or functional assay
[4] = target: T2, Cynomolgus OSM; test: BIAcore kinetics, purified antibody
[5] = target: T1, Human OSM; test: BIAcore kinetics, purified antibody
[6] = target: T1, Human OSM; test: BIAcore kinetics, transfection supernatant

B1: Pos 98 Met (antibody, V domains shown)
VH: EVQLVESGGGLVQPGGSLRLSCAASGFTFSSYAMSWVRQAPGKGLEWVATISDGGSFTYYLDNVRGRFTISRDNAKNSLYLQMNSLRAEDTAVYYCARDVGMTTFWYFDVWGRGTLVTVSS
VL: DIVMTQSPDSLAVSLGERATINCRASKSVSAAGYNFMHWYQQKPGQPPKVLIYYASNLESGVPDRFSGSGSGTDFTLTISSLQAEDVAVYYCLHSREFPFTFGGGTKVEIKR
notes: also called CDRH3 H98>M
For B1, the Kd [1] was 6.93 nM.

B2: Humanised 10G8 H1L1 (antibody, V domains shown)
VH: EMQLVESGGGLVQPGGSLRLSCAASGFTFSNYAMSWVRQAPGKGLEWVATISDGGSFTYYLDNVRGRFTISRDNAKNSLYLQMNSLRAEDTAVYYCARDVGHTTFWYFDVWGRGTLVTVSS
VL: DIVMTQSPDSLAVSLGERATINCRASKSVSAAGYNFMHWYQQKPGQPPKVLIYYASNLESGVPDRFSGSGSGTDFTLTISSLQAEDVAVYYCLHSREFPFTFGGGTKVEIK
With B2 the “KB cell neutralisation assay, mean IC50” value [2] was 0.01 µg/ml and 67 pM, the “KB cell neutralisation assay, mean IC50” value [3] was 0.013 µg/ml and 83 pM and the Kd [4] was 0.258 nM. It also gave a koff [4] of 0.00011 s⁻¹, a kon [4] of 428000 M⁻¹ s⁻¹ and a Kd [5] of 0.443 nM. The koff [5] was 0.000166 s⁻¹, the kon [5] was 375000 M⁻¹ s⁻¹ and the Kd [6] was 0.25 nM. For the same binder, the koff [6] was 9.99e-05 s⁻¹ and the kon [6] was 400000 M⁻¹ s⁻¹.

B3: Pos 99 His (antibody, V domains shown)
VH: EVQLVESGGGLVQPGGSLRLSCAASGFTFSSYAMSWVRQAPGKGLEWVATISDGGSFTYYLDNVRGRFTISRDNAKNSLYLQMNSLRAEDTAVYYCARDVGHHTFWYFDVWGRGTLVTVSS
VL: DIVMTQSPDSLAVSLGERATINCRASKSVSAAGYNFMHWYQQKPGQPPKVLIYYASNLESGVPDRFSGSGSGTDFTLTISSLQAEDVAVYYCLHSREFPFTFGGGTKVEIKR
notes: also called CDRH3 T99>H
With B3 the Kd [1] was 15.6 nM.

B4: Pos 100B Met (antibody, V domains shown)
VH: EVQLVESGGGLVQPGGSLRLSCAASGFTFSSYAMSWVRQAPGKGLEWVATISDGGSFTYYLDNVRGRFTISRDNAKNSLYLQMNSLRAEDTAVYYCARDVGHTTFMYFDVWGRGTLVTVSS
VL: DIVMTQSPDSLAVSLGERATINCRASKSVSAAGYNFMHWYQQKPGQPPKVLIYYASNLESGVPDRFSGSGSGTDFTLTISSLQAEDVAVYYCLHSREFPFTFGGGTKVEIKR
notes: also called CDRH3 W100B>M
Binder B4 has a Kd [1] of 40.3 nM.

B5: Pos 99 Met (antibody, V domains shown)
VH: EVQLVESGGGLVQPGGSLRLSCAASGFTFSSYAMSWVRQAPGKGLEWVATISDGGSFTYYLDNVRGRFTISRDNAKNSLYLQMNSLRAEDTAVYYCARDVGHMTFWYFDVWGRGTLVTVSS
VL: DIVMTQSPDSLAVSLGERATINCRASKSVSAAGYNFMHWYQQKPGQPPKVLIYYASNLESGVPDRFSGSGSGTDFTLTISSLQAEDVAVYYCLHSREFPFTFGGGTKVEIKR
notes: also called CDRH3 T99>M
Binder B5 has a Kd [1] of 1.62 nM.

B6: Humanised 10G8 H1L4 (antibody, V domains shown)
VH: EMQLVESGGGLVQPGGSLRLSCAASGFTFSNYAMSWVRQAPGKGLEWVATISDGGSFTYYLDNVRGRFTISRDNAKNSLYLQMNSLRAEDTAVYYCARDVGHTTFWYFDVWGRGTLVTVSS
VL: DIVMTQSPDSLAVSLGERATINCRASKSVSAAGYNFMHWYQQKPGQPPKVLIYYASNLESGVPDRFSGSGSGTDFTLTISSLQAEDVVVYYCLHSREFPFTFGGGTNVEIK
B6 was tested, and the “KB cell neutralisation assay, mean IC50” value [2] was 0.011 µg/ml and 10 pM, the “KB cell neutralisation assay, mean IC50” value [3] was 0.016 µg/ml and 107 pM and the Kd [4] was 0.264 nM. It also gave a koff [4] of 0.000111 s⁻¹, a kon [4] of 421000 M⁻¹ s⁻¹ and a Kd [5] of 0.37 nM. It also gave a koff [5] of 0.000135 s⁻¹, a kon [5] of 365000 M⁻¹ s⁻¹ and a Kd [6] of 0.344 nM. For the same binder, the koff [6] was 0.00013 s⁻¹ and the kon [6] was 377000 M⁻¹ s⁻¹.
